In article PMC11774777, “A PDZ-kinase allosteric relay mediates Par complex regulator exchange” (The Journal of Biological Chemistry, 2024):
Read-outs that look alike come from different tables or passages of the source.

Tests used:
[1] = molecular target: T1, GST-fused Par-3 PDZ2 with its associated basic region (BR-PDZ2) (UniProt O96782 1-1464)
T1 chain: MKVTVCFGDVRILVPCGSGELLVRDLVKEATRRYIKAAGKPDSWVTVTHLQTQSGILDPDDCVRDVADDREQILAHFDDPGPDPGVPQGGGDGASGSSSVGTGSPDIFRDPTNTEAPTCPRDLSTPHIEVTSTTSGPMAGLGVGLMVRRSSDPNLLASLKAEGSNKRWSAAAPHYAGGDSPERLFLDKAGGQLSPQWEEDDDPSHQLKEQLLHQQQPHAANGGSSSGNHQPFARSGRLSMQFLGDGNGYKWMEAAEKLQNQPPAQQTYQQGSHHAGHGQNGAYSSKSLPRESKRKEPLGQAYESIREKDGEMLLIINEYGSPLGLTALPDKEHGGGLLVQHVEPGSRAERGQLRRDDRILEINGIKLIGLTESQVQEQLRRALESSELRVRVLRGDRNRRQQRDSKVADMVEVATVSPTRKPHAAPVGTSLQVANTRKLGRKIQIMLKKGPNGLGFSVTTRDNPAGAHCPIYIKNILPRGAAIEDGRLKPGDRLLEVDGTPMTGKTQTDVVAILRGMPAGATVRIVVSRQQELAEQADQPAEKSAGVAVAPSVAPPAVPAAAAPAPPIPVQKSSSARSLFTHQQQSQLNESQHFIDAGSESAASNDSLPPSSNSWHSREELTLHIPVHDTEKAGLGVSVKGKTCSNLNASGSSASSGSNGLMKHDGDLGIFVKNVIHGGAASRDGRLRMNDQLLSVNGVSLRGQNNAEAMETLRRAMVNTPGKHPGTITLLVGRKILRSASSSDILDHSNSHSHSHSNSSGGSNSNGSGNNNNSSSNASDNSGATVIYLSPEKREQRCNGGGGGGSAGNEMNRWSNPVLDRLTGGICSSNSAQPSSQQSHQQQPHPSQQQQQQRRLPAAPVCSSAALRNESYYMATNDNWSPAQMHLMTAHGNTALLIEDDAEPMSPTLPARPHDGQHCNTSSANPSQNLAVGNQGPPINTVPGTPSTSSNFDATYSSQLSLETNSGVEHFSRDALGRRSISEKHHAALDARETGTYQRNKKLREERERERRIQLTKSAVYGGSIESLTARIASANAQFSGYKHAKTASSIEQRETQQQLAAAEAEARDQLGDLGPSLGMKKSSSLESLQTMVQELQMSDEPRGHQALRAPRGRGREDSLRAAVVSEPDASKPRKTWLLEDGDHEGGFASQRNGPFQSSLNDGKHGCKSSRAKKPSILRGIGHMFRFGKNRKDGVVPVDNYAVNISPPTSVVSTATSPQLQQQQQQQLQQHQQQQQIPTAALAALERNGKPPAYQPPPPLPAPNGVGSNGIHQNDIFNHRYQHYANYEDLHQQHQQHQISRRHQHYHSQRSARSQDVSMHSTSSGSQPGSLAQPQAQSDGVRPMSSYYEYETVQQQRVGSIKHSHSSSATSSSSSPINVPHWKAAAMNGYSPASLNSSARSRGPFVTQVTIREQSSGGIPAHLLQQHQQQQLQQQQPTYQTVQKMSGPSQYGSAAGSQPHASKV

GST-fused Par-6 CRIB-PDZ = molecular target: T2, GST-fused Par-6 CRIB-PDZ (UniProt O97111 130-255); assay: pull-down; GST-Par-6 CRIB-PDZ on glutathione resin, Par complex ΔCRIB-PDZ with soluble Par-3 BR-PDZ2 added; same buffer, 60 min at RT; Coomassie, normalized band intensity of aPKC; settings: both partners purified
T2 construct: Par-6, CRIB motif and PDZ domain; also called GST Par-6 CRIB-PDZ
T2 sequence (looked up): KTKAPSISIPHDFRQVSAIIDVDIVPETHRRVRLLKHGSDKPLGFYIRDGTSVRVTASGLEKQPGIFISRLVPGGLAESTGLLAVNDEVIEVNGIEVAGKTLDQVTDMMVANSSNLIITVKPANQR

[2] = molecular target: T1, GST-fused Par-3 PDZ2 with its …; assay: with Par-6 CRIB-PDZ added in trans

B1: Par complex ΔCRIB-PDZ (full-length aPKC plus the Par-6 PB1 domain) (complex)
chain 1: MQKMPSQILNDGSSVSLNSASMNMANTPNSITVKTAYNGQIIITTINKNISYEELCYEIRNICRFPLDQPFTIKWVDEENDPCTISTKMELDEAIRLYEMNFDSQLVIHVFPNVPQAPGLSCDGEDRSIYRRGARRWRKLYRVNGHIFQAKRFNRRAFCAYCQDRIWGLGRQGFKCIQCKLLVHKKCHKLVQKHCTDQPEPLVKERAEESSDPIPVPLPPLPYEAMSGGAEACETHDHAHIVAPPPPEDPLEPGTQRQYSLNDFELIRVIGRGSYAKVLMVELRRTRRIYAMKVIKKALVTDDEDIDWVQTEKHVFETASNHPFLVGLHSCFQTPSRLFFVIEFVRGGDLMYHMQRQRRLPEEHARFYAAEISLALNFLHEKGIIYRDLKLDNVLLDHEGHIKLTDYGMCKEGIRPGDTTSTFCGTPNYIAPEILRGEDYGFSVDWWALGVLLYEMLAGRSPFDLAGASENPDQNTEDYLFQVILEKTIRIPRSLSVRAASVLKGFLNKNPADRLGCHRESAFMDIVSHPFFKNMDWELLERKQVTPPFKPRLDSDRDLANFPPEFTGEAVQLTPDDDHVIDNIDQSEFEGFEYVNPLLMSLEDCV
chain 2: MSKNKINTTSATAASDTNLIEVKSKFDAEFRRWSFKRNEAEQSFDKFASLIEQLHKLTNIQFLILYIDPRDNDLLPINNDDNFGRALKTARPLLRVIVQRKDDLNEYSGFGTMKPRNLIGSILMGHTPV
notes: atypical PKC (aPKC), full length; Par-6, PB1 domain; The complex was His-purified; also called full-length aPKC with Par-6 PB1; source: HEK 293F, co-transfected, purified (cobalt resin, anion exchange)
Kd [1]: 161 µM | fold increase of binding with Par-3 PDZ2 against without Par-3 (GST-fused Par-6 CRIB-PDZ): > 20 fold | Kd [2]: 11.3 µM
